Reference: patent publication US20140004580A1, “MODIFIED PHOTOSYNTHETIC MICROORGANISMS FOR PRODUCING LIPIDS” (Matrix Genetics, LLC, priority 2010, published 2014)

Key:
Format in all cases: biochemical, Synechococcus elongatus PCC7942
[1] = target: h6-0489 (histidine-tagged orf0489 aldehyde dehydrogenase) (Synechococcus elongatus, UniProt Q31QZ8); experiment: Enzymatic characterization of h6-0489 with fatty aldehydes of varying chain length (NADH production at 340 nm)
Experimental: (§1) The protein eluted off of SEC as a single monodisperse peak. The enzymatic characteristics of purified protein were then measured in vitro using fatty aldehydes of varying chain length (4-16) as substrate. In this assay, h6-0489 was incubated with 150 mM NaCl, 50 mM Tris, pH 7.5, 0.05% IGEPAL, 1 mM NAD+ and varying concentrations of the fatty aldehyde substrate being tested. The reaction was carried out in a cuvette with a 1 cm pathlength, and the progress was assessed by measuring the production of NADH at 340 nm using a SpectraMax M5 spectrophotometer. Measurements were taken every second for 2-5 minutes, and the initial velocities of each reaction were determined in the linear range. The A340 was converted into amount of NADH formed using the molar extinction coefficient for NADH (6200 M^−1 cm^−1). The Michaelis constants Km and Vmax were determined by fitting the data using non-linear progression in Prism to the equation Y=(Vmax*X)/(Km+X), where X=substrate concentration and Y=velocity. Kcat was determined from the equation Vmax=Kcat*Et, where Et=the concentration of h6-0489. Data are presented in Table C as averages of at least three different experiments, with errors presented as standard deviation.

[2] = test system: purified h6-orf0489; experiment: orf0489 aldehyde dehydrogenase activity assay with nonyl-aldehyde (NAD(P)H production at 340 nm); conditions: nonyl-aldehyde 1 mM; h6-orf0489 0.3, 1.5 or 6 μM; NAD+ or NAD(P)+ 1 mM; 30 minutes
Experimental: The reaction was started by mixing together a fatty aldehyde substrate, purified h6-orf0489 and NAD(P)+. The progress of the reaction was assessed by measuring the production of NAD(P)H at 340 nm using the SpectraMax M5. […] Nonyl-aldehyde and either NAD+ or NAD(P)+ were used at 1 mM. Measurements were taken every 30 seconds for 30 minutes.
To directly test whether orf0489 is an aldehyde dehydrogenase, a histidine-tagged version of this protein (h6-orf0489) was overexpressed in E. coli and purified using metal affinity chromatography. The purified protein was then employed in an in vitro reaction using a fatty aldehyde as a substrate.
The reaction was started by mixing together a fatty aldehyde substrate (nonyl-aldehyde at 1 mM), various concentrations of purified h6-orf0489 (0.3, 1.5 or 6 μM final concentration), and NAD+ or NAD(P)+ at 1 mM. The progress of the reaction was assessed by measuring the production of NAD(P)H at 340 nm using the SpectraMax M5; measurements were taken every 30 seconds for 30 minutes.

[3] = substrate: CCCCCCCC=O; experiment: Enzymatic characterization of h6-0489 with fatty aldehydes of varying chain length (NADH production at 340 nm); conditions: other: aldehyde as substrate, 1 mM NAD+, pH 7.5, average of at least three experiments
Experimental: as §1

[4] = substrate: CCCC=O; experiment: as above; conditions: other: aldehyde as substrate, 1 mM NAD+, pH 7.5, average of at least three experiments
Experimental: as §1

[5] = substrate: CCCCCC=O; experiment: as above; conditions: other: aldehyde as substrate, 1 mM NAD+, pH 7.5, average of at least three experiments
Experimental: as §1

[6] = substrate: CCCCCCCCCC=O; experiment: as above; conditions: other: aldehyde as substrate, 1 mM NAD+, pH 7.5, average of at least three experiments
Experimental: as §1

[7] = substrate: CCCCCCCCCCCC=O; experiment: as above; conditions: other: aldehyde as substrate, 1 mM NAD+, pH 7.5, average of at least three experiments
Experimental: as §1

## hexadecenal
[1]; aldehyde as substrate, 1 mM NAD+, 150 mM NaCl, 50 mM Tris pH 7.5, 0.05% IGEPAL, average of at least three experiments
  kcat (AVE): 10.8 s⁻¹
[1]; aldehyde as substrate, 1 mM NAD+, pH 7.5, average of at least three experiments, read-out: (μM) (AVE) [Km]
  Km: 38.1 µM
[1]; in vitro
  oxidation of the aldehyde to a free fatty acid by h6-0489 in vitro: able to oxidize hexadecenal to a free fatty acid

## CCCCCCCCC=O [nonyl-aldehyde]
[2]
  utilization as substrate (increased NAD(P)H production relative to controls): utilizes nonyl-aldehyde as a substrate

B1: h6-0489 (histidine-tagged orf0489 aldehyde dehydrogenase) (Synechococcus elongatus PCC 7942 = FACHB-805) (protein)
chain: MTAVVLPAAAETLAALQATFDRGDTRTLAFRLARLQDLAKLVADNEAELLQALASDLRKPALEAYASEIYFVRDQIKLTCKHLRRWMQPEKQSISLMQQPGQAYRQAEPLGVVLIIGPWNYPFQLLITPLIGAIAAGNCAVLKPSELAPATSSLIQRLISDRFDPDYIRVLEGDASVSQALITQPFDHIFFTGGTAIGRKVMAAAAENLTPVTLELGGKSPCIVDTDIDLDVAARRIAWGKFFNAGQTCIAPDYLLVQRTVAEPFIEALIDNIQQFYGEDPQQSADYARIVSDRHWQRLNSLLVDGTIRHGGQVDRSDRYIAPTLITDVNWRDPILQEEIFGPLLPILIYDQLDEAIAQIRAQPKPLALYLFSRDRQVQERVLAETSAGSVCLNDTILQVGVPDAAFGGVGPSGMGGYHGKASFETFSHYKLVLKRPFWLDLALRYPPYGDKINLFRKL
[3]
  Km: 15.4 µM
  kcat: 13.5 s⁻¹
  kcat/Km: 875000 M⁻¹ s⁻¹
[4]
  Km: 189.4 µM
  kcat: 7.65 s⁻¹
  kcat/Km: 40000 M⁻¹ s⁻¹
[5]
  Km: 19.3 µM
  kcat: 8.51 s⁻¹
  kcat/Km: 442000 M⁻¹ s⁻¹
[6]
  Km: 7.6 µM
  kcat: 12.1 s⁻¹
  kcat/Km: 1.59e+06 M⁻¹ s⁻¹
[7]
  Km: 11.4 µM
  kcat: 9.29 s⁻¹
  kcat/Km: 818000 M⁻¹ s⁻¹
